{"source": "patent US20100041597A1", "about": "(published 2010)", "binders": {"B1": {"name": "PRE 1 (peptide)", "peptide": "RRKKGGKDFVVKR", "notes": "Synthetic peptide, solid phase synthesis; termini given free; also called peptide PRE 1"}}, "key": {"[1]": {"target": "T1, PKC-βII (purified isoform) (Homo sapiens (Human), UniProt P05771 2-621)", "T1 construct": "also called PKC-beta II", "T1 sequence (P05771 other isoform, or with tags, fused parts or gaps limits assumed)": "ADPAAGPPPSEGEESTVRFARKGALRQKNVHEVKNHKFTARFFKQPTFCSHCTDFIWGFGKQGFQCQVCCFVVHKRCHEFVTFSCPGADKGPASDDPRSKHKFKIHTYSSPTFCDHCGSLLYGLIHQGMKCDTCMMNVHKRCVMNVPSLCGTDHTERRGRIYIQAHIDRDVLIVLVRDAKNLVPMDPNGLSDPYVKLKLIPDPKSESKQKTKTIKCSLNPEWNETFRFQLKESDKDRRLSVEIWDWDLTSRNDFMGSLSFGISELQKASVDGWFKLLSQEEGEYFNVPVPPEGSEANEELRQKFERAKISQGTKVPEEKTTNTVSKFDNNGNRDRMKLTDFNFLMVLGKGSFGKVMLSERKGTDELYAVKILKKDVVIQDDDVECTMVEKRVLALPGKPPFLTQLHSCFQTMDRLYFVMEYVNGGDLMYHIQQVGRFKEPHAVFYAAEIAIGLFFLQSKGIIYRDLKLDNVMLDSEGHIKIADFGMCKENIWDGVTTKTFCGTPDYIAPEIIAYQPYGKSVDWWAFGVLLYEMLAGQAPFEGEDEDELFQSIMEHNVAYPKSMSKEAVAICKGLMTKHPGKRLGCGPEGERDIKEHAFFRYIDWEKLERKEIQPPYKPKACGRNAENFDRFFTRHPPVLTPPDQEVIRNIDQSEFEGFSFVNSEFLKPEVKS", "experiment": "summary grade, purified isoform ELISA"}, "PKC-δ (purified isoform) [2]": {"target": "T2, PKC-δ (purified isoform) (Homo sapiens (Human), UniProt Q05655 1-676)", "T2 construct": "also called PKC-delta; PKCdelta", "T2 sequence (Q05655 whole entry, stated change not applied, canonical isoform)": "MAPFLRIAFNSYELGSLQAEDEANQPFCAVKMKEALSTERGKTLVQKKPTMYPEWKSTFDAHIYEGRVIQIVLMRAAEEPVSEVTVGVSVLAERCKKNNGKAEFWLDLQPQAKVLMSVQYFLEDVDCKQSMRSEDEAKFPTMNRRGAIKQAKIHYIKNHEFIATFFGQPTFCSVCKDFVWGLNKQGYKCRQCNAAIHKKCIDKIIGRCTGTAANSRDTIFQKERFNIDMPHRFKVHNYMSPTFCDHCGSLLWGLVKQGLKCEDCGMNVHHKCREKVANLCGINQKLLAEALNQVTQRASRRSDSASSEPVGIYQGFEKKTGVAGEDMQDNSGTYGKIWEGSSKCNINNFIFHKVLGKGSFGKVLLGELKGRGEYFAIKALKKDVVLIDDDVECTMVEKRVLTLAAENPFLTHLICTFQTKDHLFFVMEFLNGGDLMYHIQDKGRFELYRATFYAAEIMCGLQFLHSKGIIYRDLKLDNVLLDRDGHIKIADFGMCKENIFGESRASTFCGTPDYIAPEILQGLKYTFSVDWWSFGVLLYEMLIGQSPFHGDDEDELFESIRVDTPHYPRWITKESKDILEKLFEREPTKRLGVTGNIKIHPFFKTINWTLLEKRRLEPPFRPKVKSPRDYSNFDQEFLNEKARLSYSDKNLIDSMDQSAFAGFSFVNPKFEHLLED", "experiment": "competitive ELISA on purified PKC-δ vs anti-PKC-δ Ab; PRE 50 µM", "experimental": "(§1) Greiner 96 well ELISA plates were coated with the appropriate PKC isoform diluted in PBSN (PBS with Calcium/Magnesium+0.05% Sodium azide w/w). 50 μL/well at 250 ng/mL was used. Control wells contained PBSN only. Plates were incubated overnight at 4° C.\n(§2) The plates were washed 3 times with 200 μL of dH₂O per well, then 100 μL of blocking solution was added per well and the plate incubated for 1 h at 37° C. The washing steps with dH₂O were repeated and 50 μL of the appropriate PRE solution (PRE stock solution [20 mM in DMSO] diluted in PBSN) was added and the plate incubated for 1 h at room temperature.\n(§3) 50 μL of 1:1000 dilution of Alkaline Phosphatase (AP) conjugated antibody (anti-rabbit for all except zeta, which was anti-goat) was then added and the plate incubated for 1 h at room temperature. Washing with dH₂O was then repeated. Finally, 100 μL of pNPP solution in pNPP buffer (2 mM MgCl₂, 100 mM Sodium bicarbonate in water, pH 9.8) was added to all wells and incubated for 8 minutes for α, βI, βII ε, and ζ, or for 15-20 mins for […] (until sufficient coloration is observed). The reaction was stopped by addition of Stop solution (2N NaOH) and the absorbance at 405 nm was read on a Galaxy Plate reader."}, "PKC-δ (purified isoform) [3]": {"target": "T2, PKC-δ (purified isoform)", "experiment": "competitive ELISA on purified PKC-δ vs anti-PKC-δ Ab; PRE 100 µM", "experimental": "as §1, §2, §3"}, "PKC-δ (purified isoform) [4]": {"target": "T2, PKC-δ (purified isoform)", "experiment": "competitive ELISA on purified PKC-δ vs anti-PKC-δ Ab; PRE 200 µM", "experimental": "as §1, §2, §3"}, "[5]": {"target": "T3, PKC-βI (purified isoform) (Homo sapiens (Human), UniProt P05771 2-671)", "T3 construct": "also called PKC-beta I", "T3 sequence (P05771 2-671 limits assumed)": "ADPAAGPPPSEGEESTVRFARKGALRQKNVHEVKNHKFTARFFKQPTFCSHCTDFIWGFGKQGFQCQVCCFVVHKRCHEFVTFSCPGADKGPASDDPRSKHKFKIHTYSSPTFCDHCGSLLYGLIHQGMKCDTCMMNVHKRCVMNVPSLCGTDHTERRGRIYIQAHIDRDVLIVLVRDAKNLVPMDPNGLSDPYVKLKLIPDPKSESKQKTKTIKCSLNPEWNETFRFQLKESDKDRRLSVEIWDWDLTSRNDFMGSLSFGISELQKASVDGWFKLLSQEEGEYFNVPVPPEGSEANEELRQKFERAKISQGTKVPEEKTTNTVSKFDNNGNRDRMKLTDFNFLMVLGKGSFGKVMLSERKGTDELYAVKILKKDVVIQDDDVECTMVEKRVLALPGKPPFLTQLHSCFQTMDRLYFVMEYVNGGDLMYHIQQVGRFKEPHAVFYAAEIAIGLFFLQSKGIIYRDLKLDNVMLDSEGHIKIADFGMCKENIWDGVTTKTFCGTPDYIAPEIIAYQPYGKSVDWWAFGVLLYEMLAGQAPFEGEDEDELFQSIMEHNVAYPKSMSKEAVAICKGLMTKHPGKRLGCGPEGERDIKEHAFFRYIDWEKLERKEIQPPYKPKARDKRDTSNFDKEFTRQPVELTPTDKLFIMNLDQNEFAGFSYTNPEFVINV", "experiment": "competitive ELISA on purified PKC-βI vs anti-PKC-βI Ab; PRE 50 µM", "experimental": "as §1, §2, §3"}, "[6]": {"target": "T3, PKC-βI (purified isoform)", "experiment": "competitive ELISA on purified PKC-βI vs anti-PKC-βI Ab; PRE 100 µM", "experimental": "as §1, §2, §3"}, "[7]": {"target": "T3, PKC-βI (purified isoform)", "experiment": "competitive ELISA on purified PKC-βI vs anti-PKC-βI Ab; PRE 200 µM", "experimental": "as §1, §2, §3"}, "[8]": {"target": "T1, PKC-βII (purified isoform)", "experiment": "competitive ELISA on purified PKC-βII vs anti-PKC-βII Ab; PRE 50 µM", "experimental": "as §1, §2, §3"}, "[9]": {"target": "T1, PKC-βII (purified isoform)", "experiment": "competitive ELISA on purified PKC-βII vs anti-PKC-βII Ab; PRE 100 µM", "experimental": "as §1, §2, §3"}, "[10]": {"target": "T1, PKC-βII (purified isoform)", "experiment": "competitive ELISA on purified PKC-βII vs anti-PKC-βII Ab; PRE 200 µM", "experimental": "as §1, §2, §3"}, "[11]": {"target": "T4, PKC-ι (endogenous, human cell extracts) (human, UniProt P41743 2-596)", "T4 construct": "also called PKC-iota", "T4 sequence (looked up)": "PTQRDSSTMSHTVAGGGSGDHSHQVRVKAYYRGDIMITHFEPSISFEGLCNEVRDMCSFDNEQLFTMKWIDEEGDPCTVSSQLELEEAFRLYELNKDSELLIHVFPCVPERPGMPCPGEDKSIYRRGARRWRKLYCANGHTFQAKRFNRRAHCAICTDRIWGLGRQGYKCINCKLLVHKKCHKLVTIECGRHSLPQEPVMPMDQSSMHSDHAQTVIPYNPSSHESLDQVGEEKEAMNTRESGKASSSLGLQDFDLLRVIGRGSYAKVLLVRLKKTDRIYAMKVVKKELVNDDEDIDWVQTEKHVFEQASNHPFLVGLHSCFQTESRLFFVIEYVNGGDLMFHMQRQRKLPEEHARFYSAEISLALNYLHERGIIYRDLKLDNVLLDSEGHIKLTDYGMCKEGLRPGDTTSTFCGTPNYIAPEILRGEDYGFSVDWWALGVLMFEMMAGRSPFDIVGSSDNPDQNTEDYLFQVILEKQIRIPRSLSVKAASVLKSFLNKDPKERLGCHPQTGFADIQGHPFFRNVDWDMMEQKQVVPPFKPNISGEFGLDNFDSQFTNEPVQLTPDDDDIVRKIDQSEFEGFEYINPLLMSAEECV", "experiment": "Western-blot competition on cell extracts against the anti-PKC-ι primary antibody; band densitometry", "experimental": "Binding efficiency and specificity of the peptides PRE 2, 3, 4, 5, 6, 7, 8, 9, 10, 11, 12 and 13 (see Table 3) was also tested using cytoplasmic extracts from different cell lines expressing appropriate PKC isoforms as described for Example 1. Briefly, the protein cytoplasmic extracts were separated by electrophoresis and transferred onto nitrocellulose membranes by standard Western blotting procedures. The bands on the Western blots were detected with matching primary antibodies and alkaline phosphatase conjugated secondary antibody. The bands were then scanned and the relative density measurements obtained.\nThis procedure to assess the binding characteristics of the PREs is based on competition binding of the PRE with the primary anti-isoform PKC specific antibodies. The lower the measured band density, the greater the binding of the PRE to the PKC isoform. The PREs were added at 10 and 20 times (10×, 20×) the primary antibody concentration, according to classical competition between antigenic peptide and primary antibody. The following cell lines (obtained from the ATCC) were used: H661—NCI human lung carcinoma NSCLC; MDAMB231—human highly invasive breast cancer cell line from pleural effusion; LS180—human colon adenocarcinoma; LnCAP—human prostate adenocarcinoma; CCD16Lu—human lung fibroblasts; Du145—human prostate carcinoma brain metastasis, and T24—human bladder carcinoma."}, "[12]": {"target": "T5, PKC-α (endogenous, human cell lysates and cells) (human, UniProt P17252 2-672)", "T5 construct": "Endogenous protein of human cell lysates, on Western blot membranes (denatured) or in fixed cells; also called PKC-alpha; PKC-A", "experiment": "anti-PKC-α immunofluorescence, V5E-transfected IMR-32 cells loaded with PRE (label on PKC-α and V5E); control with endocytosis reagent 113", "description": "Neuroblastoma cells from the IMR-32 cell line were stably transfected with a vector containing the V5E sequence of PKC-α as outlined above in Example 13. The V5E sequence is part of the antigenic amino acid sequence that is used to raise the commercially available anti-PKC-α isoform-specific antibody.\nThe peptides PRE 1, 2, 3, 4, 5, 6, 7, 8, 9, 10, 11, 12 and 13 (see Table 3) were incorporated into the transfected IMR-32 cells via pinocytic endocytosis (Molecular Probes) according to the supplier's recommendations. Following fixation and permeabilization, PKC-α was detected using an Alexa fluor secondary antibody (as described above in Example 8)."}}, "data": [{"binder": "B1", "values": [{"measurement": "binding result", "setting": "[1]", "result": "no binding (tested: 200 µM)"}, {"measurement": "binding capacity (%)", "setting": "PKC-δ (purified isoform) [2]", "result": 35.7, "unit": "%"}, {"measurement": "binding capacity (%)", "setting": "PKC-δ (purified isoform) [3]", "result": 45.2, "unit": "%"}, {"measurement": "binding capacity (%)", "setting": "PKC-δ (purified isoform) [4]", "result": 49.4, "unit": "%"}, {"measurement": "binding capacity (%)", "setting": "[5]", "result": 19.8, "unit": "%"}, {"measurement": "binding capacity (%)", "setting": "[6]", "result": 13.9, "unit": "%"}, {"measurement": "binding capacity (%)", "setting": "[7]", "result": 13.4, "unit": "%"}, {"measurement": "binding capacity (%)", "setting": "[8]", "result": 0, "unit": "%"}, {"measurement": "binding capacity (%)", "setting": "[9]", "result": 0, "unit": "%"}, {"measurement": "binding capacity (%)", "setting": "[10]", "result": 0, "unit": "%"}, {"measurement": "binding result", "setting": "[11]", "result": "no binding (tested: 20X the primary antibody concentration)"}, {"measurement": "Relative Fluorescence Intensity", "setting": "[12]", "result": 79}]}]}
